For orientation: EC50 means the concentration giving half of the maximal effect.

Where only a bound is given, the exact number is not on record here.

These results are taken from patent US20090162366A1.

The target in assay [1] is M2-BSA conjugate (influenza A virus, A/Hong Kong/1/68 (H3N2)). Put plainly: peptide-BSA ELISA (++ EC50<10^-9M; + 10^-9M<EC50<10^-8M).
For assay [2], the target named is M2FG peptide conjugated with BSA (influenza A virus, A/X-31 (H3N2)). Described as above. The following applies: remark: other sources report otherwise.
The target of assay [3] is M2G peptide conjugated with BSA (influenza A virus, A/Puerto Rico/8/34 (H1N1)). The description is as above.
For assay [4], the target named is M16 (influenza A virus). Put plainly: ELISA on peptide, Ab 10 µg/ml. In general terms: ELISA stands for enzyme-linked immunosorbent assay.
Assay [5] concerns the target NM15 (influenza A virus). Put plainly: ELISA on peptide, Ab 10 µg/ml.
In assay [6] the target is NM16 (influenza A virus). Put plainly: ELISA on peptide, Ab 10 µg/ml.
In assay [7] the target is M15 (influenza A virus). Put plainly: ELISA on peptide, Ab 10 µg/ml.
Assay [8] deals with NM17 (influenza A virus). Put plainly: ELISA on peptide, Ab 10 µg/ml.
Assay [9] concerns the target M2 peptide (influenza A virus, A/Hong Kong/1/68 (H3N2)). Put plainly: ELISA on peptide, Ab 10 µg/ml.

B1: C40G1 (antibody, V domains shown)
VH: QLQLQESGPGLVKPSETLSLTCTVSGGSISSSFYYCGWIRQPPGKGLEWIGSIYYRGSTYYNPSLKSRVTISVDTSKNQFSLKLSSVTAADTAVYYCARRVTMVRGVKGDYFDYWGQGTLVTVSS
VL: DIQMTQSPSSLSASVGDRVTITCRASQGISSWLAWYQQKPEKVPKSLIYAASSLQSGVPSRFSGSGSGTDFTLTISSLQPEDFATYYCQQYNYYPLTFGGGTKVEIKR
On to B1, for which the EC50 in assay [1], in [2] and in [3] was under 1 nM each time. For the same molecule, the ELISA(OD450) in assay [4] was 2.64 OD450; in assay [5] it was 2.51 OD450; in assay [6], 2.37 OD450; in assay [7] it was 2.73 OD450; in assay [8] it was 2.41 OD450; in assay [9], 2.56 OD450.
